# Data as given in the supplement of paper PMC10126150.
# ± gives the standard deviation of the averaged measurements.
# System: ATP
# Test: switch fluorescence ratio, 500 uM ATP over buffer (Cy3 cluster intensity, sum of 5 cycles each) (fold (ratio)); higher = stronger signal-on switching upon ATP binding; sequences stand for … in TCGTCGGCAGCGTCAGATGTGTATAAGAGACAGTTTTTTTTTTTTTTTTTTTTTTTTT…TC
# Conditions: aptamer strand: ATP DNA aptamer (quencher-CACCTGGGGGAGTATTGCGGAGGAAGG + anchor), 100 nM annealed; ATP concentration: 500 uM
# Method in brief: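 After annealing to 100 nM quencher-labelled ATP aptamer, Cy3-labelled switching-strand clusters on a modified Illumina MiSeq flow-cell were imaged in selection buffer. A second image followed after 15 min with 500 uM ATP at 22 °C, and five such buffer/ATP cycles were done, each separated by NaOH stripping and re-annealing. The fluorescence ratio, averaged per switch-domain sequence, is summed target-cycle over summed buffer-cycle Cy3 intensity per cluster, with clusters outside 100-1000 RFU excluded.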
# 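Also: ATP exposure 15 min at 22 °C before imaging.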
sequence,measurement,value
GGGTAGCTCT,switch fluorescence ratio,1.06 ± 0.076
GAGAGTACTT,switch fluorescence ratio,0.9945 ± 0.0093
GGTTAAGTCT,switch fluorescence ratio,0.946 ± 0.053
GTTAGGGGAT,switch fluorescence ratio,1 ± 0.011
TGCCGGGGGA,switch fluorescence ratio,1.01 ± 0.018
GCTTCGGAGG,switch fluorescence ratio,1.015 ± 0.0024
ATCTATTAGC,switch fluorescence ratio,0.9896 ± 0.009
ACTTCAGATT,switch fluorescence ratio,0.995 ± 0.012
AAAGGATAGC,switch fluorescence ratio,1.017 ± 0.0044
GATTCGGCTA,switch fluorescence ratio,1.02 ± 0.021
CGGAGAAAGG,switch fluorescence ratio,1.03 ± 0.069
TTACGGATGT,switch fluorescence ratio,1.02 ± 0.012
GATACGTAGG,switch fluorescence ratio,1.009 ± 0.0049
CGATGGCGGG,switch fluorescence ratio,1.02 ± 0.071
GATAGGGGCG,switch fluorescence ratio,0.998 ± 0.026
TAGGTCATAT,switch fluorescence ratio,1 ± 0.022
TTTCGAGCTT,switch fluorescence ratio,1.01 ± 0.022
CTGGCTACTA,switch fluorescence ratio,1.03 ± 0.031
GCTAAATCGG,switch fluorescence ratio,1.027 ± 0.0082
GCGTCAAGAG,switch fluorescence ratio,1.24 ± 0.046
GCGGGTTATG,switch fluorescence ratio,1.02 ± 0.029
GTGTGCAACT,switch fluorescence ratio,1.02 ± 0.024
TTATGATCAG,switch fluorescence ratio,0.9912 ± 0.0038
TTCTCTATAT,switch fluorescence ratio,1.05 ± 0.11
ATATATGTTT,switch fluorescence ratio,0.9649 ± 0.0016
CAGGTGGAGA,switch fluorescence ratio,1.0094 ± 0.00078
GGGTTTCAGC,switch fluorescence ratio,1 ± 0.053
CATCGTAAAT,switch fluorescence ratio,1.06 ± 0.016
ATATTGACGG,switch fluorescence ratio,1.09 ± 0.12
GGGATCGTAT,switch fluorescence ratio,0.9856 ± 0.0054
GTAGAAATTC,switch fluorescence ratio,1.24 ± 0.048
TTGTGAAAGA,switch fluorescence ratio,1.01 ± 0.021
TTCGGAGTTG,switch fluorescence ratio,1 ± 0.022
TCGGTTAGT,switch fluorescence ratio,0.96 ± 0.054
AGACGGGCAC,switch fluorescence ratio,1.074 ± 0.0063
TGCATAATCT,switch fluorescence ratio,1.04 ± 0.026
GGGTAGGGAC,switch fluorescence ratio,1.01 ± 0.026
CGTCCGAAGT,switch fluorescence ratio,2.03 ± 0.18
AAGGTAGGCC,switch fluorescence ratio,0.96 ± 0.016
GAGGGCCGCA,switch fluorescence ratio,1.05 ± 0.011
GGGTGGAAGT,switch fluorescence ratio,0.981 ± 0.023
AGTCCTTTT,switch fluorescence ratio,0.9882 ± 0.0095
TGCGTGTTTT,switch fluorescence ratio,1.03 ± 0.015
CTAGTTATGA,switch fluorescence ratio,1.02 ± 0.016
ATCTAGGCAG,switch fluorescence ratio,0.9915 ± 0.0043
AGGAGGGGAG,switch fluorescence ratio,1.024 ± 0.0053
TAGTGGGTGG,switch fluorescence ratio,0.989 ± 0.01
AGCACTTTAT,switch fluorescence ratio,1.05 ± 0.073
GGTTTGACGG,switch fluorescence ratio,1.01 ± 0.053
TGGATATGGT,switch fluorescence ratio,1.01 ± 0.013
ACTGTCATTA,switch fluorescence ratio,1.08 ± 0.019
AATAAATCCT,switch fluorescence ratio,1.22 ± 0.021
AAGTGGCATG,switch fluorescence ratio,0.974 ± 0.022
GGGTCTGGGT,switch fluorescence ratio,0.984 ± 0.026
GTTGCAAGAA,switch fluorescence ratio,1.13 ± 0.06
TTTTTATAAG,switch fluorescence ratio,0.994 ± 0.019
GGGCTGGCTG,switch fluorescence ratio,0.998 ± 0.062
TGTTGGCACA,switch fluorescence ratio,1.015 ± 0.0012
TGGGAGTTCC,switch fluorescence ratio,1.04 ± 0.036
TATATTAAAG,switch fluorescence ratio,0.976 ± 0.015
CGGTTGGCGT,switch fluorescence ratio,1.04 ± 0.088
CTGTAGGGGC,switch fluorescence ratio,1.09 ± 0.062
AGATAATCGC,switch fluorescence ratio,0.987 ± 0.03
AATTATGTAG,switch fluorescence ratio,1 ± 0.014
GGGTACAGTT,switch fluorescence ratio,1.01 ± 0.018
GATTTAAAAT,switch fluorescence ratio,1.013 ± 0.0083
AGGGATGGTA,switch fluorescence ratio,1.006 ± 0.0083
CAGGGGCGCA,switch fluorescence ratio,1 ± 0.075
TGGTTTAATG,switch fluorescence ratio,0.997 ± 0.015
GCGTAGGTAG,switch fluorescence ratio,0.964 ± 0.038
AGCCTGTATG,switch fluorescence ratio,0.9542 ± 0.0046
ACCGGTTATT,switch fluorescence ratio,1 ± 0.013
TCGGGGATCG,switch fluorescence ratio,1.006 ± 0.0025
GCGATTTTTG,switch fluorescence ratio,0.986 ± 0.041
ATTTATATTG,switch fluorescence ratio,0.989 ± 0.05
AACGGGCCCG,switch fluorescence ratio,1 ± 0.04
AGGGTTGACA,switch fluorescence ratio,0.981 ± 0.046
AAGTATGCTT,switch fluorescence ratio,1.01 ± 0.021
CGTAATTTGA,switch fluorescence ratio,1.02 ± 0.047
TTTTTGATTA,switch fluorescence ratio,0.986 ± 0.062
ACGAGTGGCG,switch fluorescence ratio,0.933 ± 0.021
TCGATTAATT,switch fluorescence ratio,1.1 ± 0.079
TCTTGCTCGG,switch fluorescence ratio,1.01 ± 0.053
TGAAAGGGAA,switch fluorescence ratio,0.9898 ± 0.0074
ACCTAGGACT,switch fluorescence ratio,1.024 ± 0.0027
TCTGATGGGG,switch fluorescence ratio,1 ± 0.044
TTTTACAAGT,switch fluorescence ratio,0.982 ± 0.03
CATGACGTGT,switch fluorescence ratio,1.01 ± 0.012
GCCTTGATGT,switch fluorescence ratio,1.01 ± 0.032
GCATTACTTG,switch fluorescence ratio,1.16 ± 0.027
TCCTGACGTA,switch fluorescence ratio,1.11 ± 0.022
CGGGAGGTCG,switch fluorescence ratio,1.05 ± 0.082
TTTCCGCTTA,switch fluorescence ratio,3.67 ± 1.7
TGAGGGCGAT,switch fluorescence ratio,1.033 ± 0.0019
GTTTGGAGGG,switch fluorescence ratio,0.979 ± 0.029
TGAGGATACA,switch fluorescence ratio,1.016 ± 0.0029
TTTTGCATAT,switch fluorescence ratio,1.26 ± 0.42
TGGTTCAGAG,switch fluorescence ratio,0.969 ± 0.044
TGATCTGTCG,switch fluorescence ratio,0.9814 ± 0.0086
GGGGCGTTAT,switch fluorescence ratio,0.969 ± 0.048
TGTTACTACG,switch fluorescence ratio,1.0494 ± 0.00016
CGGGTTCTAT,switch fluorescence ratio,0.977 ± 0.036
GGGAGGATCG,switch fluorescence ratio,0.993 ± 0.069
TGTTGAAGAT,switch fluorescence ratio,1.005 ± 0.0076
ATTAAGGGGT,switch fluorescence ratio,1.07 ± 0.12
TGTGGAGCTT,switch fluorescence ratio,1.07 ± 0.041
TGAGGATGGG,switch fluorescence ratio,0.975 ± 0.026
TCAGTGGGGC,switch fluorescence ratio,0.9987 ± 0.0093
ACTTTAGTTC,switch fluorescence ratio,1.01 ± 0.036
TCATCAGCAG,switch fluorescence ratio,2.96 ± 1.7
TCGGAGTAAC,switch fluorescence ratio,1.667 ± 0.0081
AGGTCGGGGA,switch fluorescence ratio,1.05 ± 0.056
GCTTGTGATC,switch fluorescence ratio,1.01 ± 0.028
CTAGGCACAT,switch fluorescence ratio,1.1 ± 0.016
AGGTTAGTAG,switch fluorescence ratio,0.973 ± 0.0052
CGGGGTGAGG,switch fluorescence ratio,0.997 ± 0.014
GAGTGGGGAG,switch fluorescence ratio,0.968 ± 0.045
CCGGGTTGTA,switch fluorescence ratio,1.02 ± 0.046
GTTTTGGCTT,switch fluorescence ratio,0.983 ± 0.021
CGGGGCACGT,switch fluorescence ratio,1.16 ± 0.23
TTGAGTGGTC,switch fluorescence ratio,0.997 ± 0.016
TCTCTAAAGA,switch fluorescence ratio,1.04 ± 0.016
GCGGCTGG,switch fluorescence ratio,0.963 ± 0.022
GTGGGTTATC,switch fluorescence ratio,1.004 ± 0.007
TGATGGGCAT,switch fluorescence ratio,1.01 ± 0.018
GGTAAATATG,switch fluorescence ratio,1 ± 0.019
AATACCAAAT,switch fluorescence ratio,0.999 ± 0.049
TTCTCAAAGA,switch fluorescence ratio,1.07 ± 0.1
TCCGTCAGCA,switch fluorescence ratio,4.04 ± 0.52
AAGGTGAATT,switch fluorescence ratio,1.06 ± 0.021
AGCCCTCGTT,switch fluorescence ratio,1 ± 0.043
TGTTAGCCGA,switch fluorescence ratio,1.02 ± 0.026
ATTGTGCGGC,switch fluorescence ratio,1.01 ± 0.027
GTGGGGGACT,switch fluorescence ratio,1.28 ± 0.5
TGATGTAATG,switch fluorescence ratio,1 ± 0.02
TAGCGGGTTT,switch fluorescence ratio,1.03 ± 0.023
GACTGTAAAG,switch fluorescence ratio,0.967 ± 0.089
AAATAATGCA,switch fluorescence ratio,0.9863 ± 0.0076
TGCAGAAATT,switch fluorescence ratio,0.98 ± 0.059
ACACTGCTTA,switch fluorescence ratio,1.02 ± 0.044
CTGGGAGGGT,switch fluorescence ratio,0.9977 ± 0.0012
TCGGTTTGGA,switch fluorescence ratio,1.019 ± 0.0063
AACAGAAAGG,switch fluorescence ratio,0.982 ± 0.045
ACTAAGGGGA,switch fluorescence ratio,1.03 ± 0.0058
ATATTTACGG,switch fluorescence ratio,1.079 ± 0.0071
ATTTTCACAG,switch fluorescence ratio,1.03 ± 0.077
CGCTGGGTAC,switch fluorescence ratio,2.24 ± 0.28
AGTAGTTCGG,switch fluorescence ratio,1.019 ± 0.0075
CGCTTGGCTC,switch fluorescence ratio,1.078 ± 0.0093
GAGTTGTCAA,switch fluorescence ratio,0.972 ± 0.033
TGGTGTACTT,switch fluorescence ratio,1.01 ± 0.012
CTGGGGCGGG,switch fluorescence ratio,0.996 ± 0.057
GGAGGGCTTT,switch fluorescence ratio,0.956 ± 0.064
